# Measured values published in US20250243292A1 (published 2025).
# T1: fully glycosylated CD24 (recombinant, from CHO cells) (N-glycans, sialic acid and O-glycans kept (untreated))
# T1 construct: Recombinant CD24 made in CHO cells, untreated; also called fully modified (N-glycan+sialic acid+O-glycan modifications) CD24; CD24 without deglycosylation
# T1 chain: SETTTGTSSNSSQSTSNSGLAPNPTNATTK
# B1: PP6373 (antibody, human IgG1, kappa, V domains shown)
# VH: EVKFEESGGGLVQPGGSIKLSCAASGVTFSEAWMDWVRQSPEKGLEWVAEIRDKPNSYVTYYAESVKGRFTISRDDSKSRVYLQMNNLRTEDTGIYYCTGAMDYWGQGTSVTVSS
# VL: DIVMTQTPLSLSVTIGQPASISCKSSQSLLYSNGKTYLNWLQQRPGQSPKRLIYQVSKLDPGIPDRFSGSGSETDFTLKISRVEAEDLGIYYCMQGSSLPWTFGGGTKLEIKR
# notes: Biotinylated in tissue and cell staining; also called H4069 + L4071; P3050.ComF1.2H1
# Tests used:
# [1] = molecular target: T1, fully glycosylated CD24 (recombinant, …); experiment: ELISA titration on coated Fc removed CD24, untreated
# Description: FIG. 8. Quantitative comparison of binding between different CD24 glycoforms and anti-CD24 antibodies: parental PP6229 vs affinity matured PP6373. Fc removed CD24 were coated onto ELISA plate, and were then treated with either buffer (CD24), NanA (SA-) or NanA+N-glycanse (SA-N-) prior adding given doses of […] (left panel) or PP6373 (right panel). The maximum concentration tested was 7812.50 ng/ml with titration factor of 5× to a minimum concentration of 0.02 ng/ml.
# Therefore, this clone is chosen for further study. The heavy chain sequence for PP6373 is listed in SEQ ID NO: 6 and the light chain sequence is listed on SEQ ID No.16. Compared with the parental sequence, the heavy chain has three mutations in CDR2, while the light chain has one mutation in CDR3 of the light chain. […] It is also of note that PP6373 gained the ability to bind to CD24 even without deglycosylation at 1/1000 level of that to SA-N-CD24. However, since CHO cells is known to have incomplete glycosylation, it is likely that the binding reflect the higher sensitivity of the antibody to detect minor glycoform in the recombinant CD24 prepared from CHO cells.
# 3B6 = molecular target: T2, 3B6; experiment: peptide inhibition ELISA, 3B6 on NO-CD24
# T2 construct: Monoclonal antibody; also called anti-CD24 monoclonal antibody 3B6
# Description: (§1) To determine the antigenic epitope recognized by 3B6 and affinity matured clone PP6373, we synthesized overlapping peptides covering the mature CD24 amino acid sequence (Seq ID No 42), and pre-incubated them with 3B6 antibody prior to adding 3B6 to plates pre-coated with NO-CD24 protein (CD24Fc pretreated sequentially with N-glycosidase, NanA and O-glycosidase).
# PP6373 [2] = molecular target: B1; experiment: peptide inhibition ELISA, PP6373 on SA-N-CD24, peptides titrated
# PP6373 [3] = molecular target: B1; experiment: peptide inhibition ELISA, peptides titrated over a large dose range
# Description: as §1
# PP6373 [4] = molecular target: B1; experiment: inhibition assay with truncated peptides
binding result (3B6),binding result (PP6373 [2]),Binder,other results
–,–,B1,binding relative to that to SA-N-CD24 [1]: 0.001 ratio
no binding,no binding,SSQSTSNSGL (Synthetic overlapping peptide of mature CD24; by order probably peptide 3; also called one of the five overlapping CD24 peptides) [SEQ ID NO 45],–
no binding,no binding,GTSSNSSQST (Synthetic overlapping peptide of mature CD24; by order probably peptide 2; also called one of the five overlapping CD24 peptides) [SEQ ID NO 44],–
no binding,no binding,APNPTNATTK (Synthetic overlapping peptide of mature CD24; by order probably peptide 5; also called one of the five overlapping CD24 peptides) [SEQ ID NO 47],–
–,–,SNSGLAPNPT (Synthetic overlapping peptide of mature CD24) [peptide 4],binding result (PP6373 [3]): binds
–,–,SNSGLAPN (C-terminally truncated form of peptide 4; also called truncated peptide 4) [SNSGLAPN (SEQ ID NO: 48)],binding result (PP6373 [4]): binds
no binding,no binding,SETTTGTSSN (Synthetic overlapping peptide of mature CD24; by order probably peptide 1; also called one of the five overlapping CD24 peptides) [SEQ ID NO 43],–
